Test results as given in patent CN113754772A (SUNSHINE GUOJIAN PHARMACEUTICAL SHANGHAI CO LTD, dated 2021).

B1: 抗PD-L1单抗 (anti-human PD-L1 monoclonal antibody M8) (antibody, V domains shown)
VH: QVQLQQSGGGLVKPSQSLSLTCTVSGFSLTSYGVHWVRQPPGKGLEWIGLIWSGGGTDYNPSLKSRLTISRDTSKNQVSFKISSLTAADTAVYYCARQLGLRAMDYWGQGTSVTVSS
VL: EIVLTQSPDFLSVTPKEKVTITCRASQSIGTTIHWYQQKPDQSPKLLIKYASQSFSGVPSRFSGSGSGTDFTLTINSVEAEDAATYYCQQSNSWPLTFGAGTKLEIK
notes: also called 抗人PD-L1单抗M8; anti-PDL1 mAb
B2: anti-PDL1×KDR BsAb1 (bispecific antibody)
heavy (part 1 of 2): QVQLQQSGGGLVKPSQSLSLTCTVSGFSLTSYGVHWVRQPPGKGLEWIGLIWSGGGTDYNPSLKSRLTISRDTSKNQVSFKISSLTAADTAVYYCARQLGLRAMDYWGQGTSVTVSS
heavy (part 2 of 2): GGGGSGGGGSGGGGSVLTQPPSVSGAPGQRVTISCTGSHSNFGAGTDVHWYQHLPGTAPKLLIHGDSNRPSGVPDRFSGSKSGTSASLAITGLQAEDEADYYCQSYDYGLRGWVFGGGTKLTVLGGGGSGGGGSGGGGSGGGGSEVQLVESGGGLVKPGGSLRLSCAASGFTFSSYSMNWVRQAPGKGLEWVSSISSSSSYIYYADSVKGRFTISRDNAKNSLYLQMNSLRAEDTAVYYCARVTDAFDIWGQGTLVTVSS
light: EIVLTQSPDFLSVTPKEKVTITCRASQSIGTTIHWYQQKPDQSPKLLIKYASQSFSGVPSRFSGSGSGTDFTLTINSVEAEDAATYYCQQSNSWPLTFGAGTKLEIKRTVAAPSVFIFPPSDEQLKSGTASVVCLLNNFYPREAKVQWKVDNALQSGNSQESVTEQDSKDSTYSLSSTLTLSKADYEKHKVYACEVTHQGLSSPVTKSFNRGEC
notes: also called 抗PDL1×KDR双抗; not shown: CH1-CH2-CH3 heavy chain constant region
B3: anti-PDL1×KDR BsAb2 (bispecific antibody)
heavy (part 1 of 2): QVQLQQSGGGLVKPSQSLSLTCTVSGFSLTSYGVHWVRQPPGKGLEWIGLIWSGGGTDYNPSLKSRLTISRDTSKNQVSFKISSLTAADTAVYYCARQLGLRAMDYWGQGTSVTVSS
heavy (part 2 of 2): GGGGSGGGGSGGGGSEVQLVESGGGLVKPGGSLRLSCAASGFTFSSYSMNWVRQAPGKGLEWVSSISSSSSYIYYADSVKGRFTISRDNAKNSLYLQMNSLRAEDTAVYYCARVTDAFDIWGQGTLVTVSSGGGGSGGGGSGGGGSGGGGSVLTQPPSVSGAPGQRVTISCTGSHSNFGAGTDVHWYQHLPGTAPKLLIHGDSNRPSGVPDRFSGSKSGTSASLAITGLQAEDEADYYCQSYDYGLRGWVFGGGTKLTVL
light: EIVLTQSPDFLSVTPKEKVTITCRASQSIGTTIHWYQQKPDQSPKLLIKYASQSFSGVPSRFSGSGSGTDFTLTINSVEAEDAATYYCQQSNSWPLTFGAGTKLEIKRTVAAPSVFIFPPSDEQLKSGTASVVCLLNNFYPREAKVQWKVDNALQSGNSQESVTEQDSKDSTYSLSSTLTLSKADYEKHKVYACEVTHQGLSSPVTKSFNRGEC
notes: as for B2
B4: anti-PDL1×KDR BsAb3 (bispecific antibody, human IgG1, lambda)
heavy: not shown
light: VLTQPPSVSGAPGQRVTISCTGSHSNFGAGTDVHWYQHLPGTAPKLLIHGDSNRPSGVPDRFSGSKSGTSASLAITGLQAEDEADYYCQSYDYGLRGWVFGGGTKLTVLGQPKAAPSVTLFPPSSEELQANKATLVCLISDFYPGAVTVAWKADSSPVKAGVETTTPSKQSNNKYAASSYLSLTPEQWKSHRSYSCQVTHEGSTVEKTVAPTECS
notes: also called 抗PDL1×KDR双抗
B5: 抗KDR单抗 (anti-human KDR monoclonal antibody) (antibody, V domains shown)
VH: EVQLVESGGGLVKPGGSLRLSCAASGFTFSSYSMNWVRQAPGKGLEWVSSISSSSSYIYYADSVKGRFTISRDNAKNSLYLQMNSLRAEDTAVYYCARVTDAFDIWGQGTLVTVSS
VL: VLTQPPSVSGAPGQRVTISCTGSHSNFGAGTDVHWYQHLPGTAPKLLIHGDSNRPSGVPDRFSGSKSGTSASLAITGLQAEDEADYYCQSYDYGLRGWVFGGGTKLTVL
notes: Whole monoclonal antibody; CDRs from clone 3A10 of Dan Lu et al. 2003, frameworks mutated in house; also called 抗人KDR单抗; anti-KDR mAb

What was measured:
PDL1-ECD-His蛋白 = target: T1, PDL1-ECD-His蛋白 (human, UniProt Q9NZQ7 19-238); test: ELISA, PDL1-ECD-His coated, HRP goat anti-human Fc
T1 construct: extracellular domain; Made in HEK-293E cells with an added N-terminal signal peptide (not part of the mature protein); also called PD-L1抗原

PD-L1 on N87-PDL1 cells = target: T2, PD-L1 on N87-PDL1 cells (UniProt Q9NZQ7 19-290, limits assumed); test: flow cytometry on N87-PDL1 cells, FITC goat anti-human Fc
T2 construct: whole, on cells; also called N87-PDL1细胞

[1] = target: PD-L1 on PD-L1 aAPC/CHO-K1 cells (UniProt Q9NZQ7 19-290, limits assumed); test: cell-based or functional assay
KDR-ECD-His蛋白 [2] = target: T3, KDR-ECD-His蛋白 (human, UniProt P35968 20-764); test: bridging ELISA: PDL1-ECD-hFc coated, antibody, then KDR-ECD-His, detected with HRP-anti-His
T3 construct: extracellular domain; Made in HEK-293E cells with an added N-terminal signal peptide (not part of the mature protein); also called KDR抗原

KDR-ECD-His蛋白 [3] = target: T3, KDR-ECD-His蛋白; test: ELISA, KDR-ECD-His coated, HRP-anti-Fab
PDL1-ECD-hFc蛋白 [4] = target: T4, PDL1-ECD-hFc蛋白 (human, UniProt Q9NZQ7 19-238); test: bridging ELISA: PDL1-ECD-hFc coated, antibody titrated, then 1 μg/ml KDR-ECD-His, HRP-anti-His (binding of both antigens at once)
T4 construct: extracellular domain; PDL1-ECD-His with its C-terminal tag exchanged for hFc; not shown: hFc tag in place of the His tag

[5] = target: KDR on KDR/NFAT-RE HEK293 cells (UniProt P35968 20-1356); test: cell-based or functional assay
PDL1-ECD-hFc蛋白 [6] = target: T4, PDL1-ECD-hFc蛋白; test: bridging ELISA: PDL1-ECD-hFc coated, antibody, then KDR-ECD-His, detected with HRP-anti-His

T2 sequence (Q9NZQ7 19-290 limits assumed): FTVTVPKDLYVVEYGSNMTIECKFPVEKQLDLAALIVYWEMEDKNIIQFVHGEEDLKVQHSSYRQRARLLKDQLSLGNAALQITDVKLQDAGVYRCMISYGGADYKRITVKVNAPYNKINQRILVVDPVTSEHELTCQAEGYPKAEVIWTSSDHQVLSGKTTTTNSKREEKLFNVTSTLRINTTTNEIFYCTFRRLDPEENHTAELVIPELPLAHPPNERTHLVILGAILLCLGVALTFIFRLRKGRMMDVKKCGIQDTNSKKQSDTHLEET
PD-L1 on PD-L1 aAPC/CHO-K1 cells, sequence (Q9NZQ7 19-290 limits assumed): as above
KDR on KDR/NFAT-RE HEK293 cells, sequence (P35968 20-1356): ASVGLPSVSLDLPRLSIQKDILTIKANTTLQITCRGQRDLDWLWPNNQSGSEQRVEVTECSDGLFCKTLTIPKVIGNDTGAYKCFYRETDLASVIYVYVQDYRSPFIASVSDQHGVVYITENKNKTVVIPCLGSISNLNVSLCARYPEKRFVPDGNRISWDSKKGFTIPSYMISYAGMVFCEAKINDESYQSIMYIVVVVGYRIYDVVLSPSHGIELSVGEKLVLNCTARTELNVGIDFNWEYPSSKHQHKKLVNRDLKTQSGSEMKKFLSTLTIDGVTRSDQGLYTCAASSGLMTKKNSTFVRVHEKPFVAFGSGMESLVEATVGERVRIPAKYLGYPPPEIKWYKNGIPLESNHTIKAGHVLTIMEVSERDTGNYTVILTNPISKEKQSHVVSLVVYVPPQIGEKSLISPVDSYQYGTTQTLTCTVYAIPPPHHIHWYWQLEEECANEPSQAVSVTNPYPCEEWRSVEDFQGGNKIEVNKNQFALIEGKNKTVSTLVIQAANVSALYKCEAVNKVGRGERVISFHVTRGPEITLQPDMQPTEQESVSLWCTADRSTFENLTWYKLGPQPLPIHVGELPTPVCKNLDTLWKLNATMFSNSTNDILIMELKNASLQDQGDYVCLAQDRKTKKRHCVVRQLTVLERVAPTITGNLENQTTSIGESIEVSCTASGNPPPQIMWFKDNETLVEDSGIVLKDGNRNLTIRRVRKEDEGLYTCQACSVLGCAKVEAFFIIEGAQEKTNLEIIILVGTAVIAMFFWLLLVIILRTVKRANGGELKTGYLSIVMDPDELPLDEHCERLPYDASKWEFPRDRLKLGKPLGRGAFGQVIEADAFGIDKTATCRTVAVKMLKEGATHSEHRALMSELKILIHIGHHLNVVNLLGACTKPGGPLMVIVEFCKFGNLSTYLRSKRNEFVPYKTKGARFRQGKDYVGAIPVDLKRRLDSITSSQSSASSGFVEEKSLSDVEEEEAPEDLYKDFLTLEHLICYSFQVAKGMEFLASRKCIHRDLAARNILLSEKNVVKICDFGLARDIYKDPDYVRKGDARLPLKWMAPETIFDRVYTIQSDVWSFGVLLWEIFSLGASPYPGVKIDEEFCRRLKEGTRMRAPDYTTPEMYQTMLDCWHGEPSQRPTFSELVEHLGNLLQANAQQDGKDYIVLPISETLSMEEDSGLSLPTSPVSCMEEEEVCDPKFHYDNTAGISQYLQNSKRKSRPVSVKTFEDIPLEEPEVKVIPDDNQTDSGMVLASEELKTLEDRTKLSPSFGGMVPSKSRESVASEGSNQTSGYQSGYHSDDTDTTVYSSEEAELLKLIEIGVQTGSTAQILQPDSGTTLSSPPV
T4 sequence (Q9NZQ7 19-238): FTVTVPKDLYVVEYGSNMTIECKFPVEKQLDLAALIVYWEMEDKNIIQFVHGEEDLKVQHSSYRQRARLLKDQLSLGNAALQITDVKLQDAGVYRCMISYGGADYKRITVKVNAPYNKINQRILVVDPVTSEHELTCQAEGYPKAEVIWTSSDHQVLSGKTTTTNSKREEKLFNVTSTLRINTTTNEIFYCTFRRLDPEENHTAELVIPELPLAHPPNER
T1 sequence (Q9NZQ7 other isoform, or with tags, fused parts or gaps): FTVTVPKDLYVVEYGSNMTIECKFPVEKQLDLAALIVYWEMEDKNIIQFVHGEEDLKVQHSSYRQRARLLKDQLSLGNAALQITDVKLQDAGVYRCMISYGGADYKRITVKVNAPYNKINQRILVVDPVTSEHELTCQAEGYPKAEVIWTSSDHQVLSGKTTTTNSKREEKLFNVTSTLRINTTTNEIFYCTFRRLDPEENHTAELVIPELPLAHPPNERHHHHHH
T3 sequence (P35968 other isoform, or with tags, fused parts or gaps): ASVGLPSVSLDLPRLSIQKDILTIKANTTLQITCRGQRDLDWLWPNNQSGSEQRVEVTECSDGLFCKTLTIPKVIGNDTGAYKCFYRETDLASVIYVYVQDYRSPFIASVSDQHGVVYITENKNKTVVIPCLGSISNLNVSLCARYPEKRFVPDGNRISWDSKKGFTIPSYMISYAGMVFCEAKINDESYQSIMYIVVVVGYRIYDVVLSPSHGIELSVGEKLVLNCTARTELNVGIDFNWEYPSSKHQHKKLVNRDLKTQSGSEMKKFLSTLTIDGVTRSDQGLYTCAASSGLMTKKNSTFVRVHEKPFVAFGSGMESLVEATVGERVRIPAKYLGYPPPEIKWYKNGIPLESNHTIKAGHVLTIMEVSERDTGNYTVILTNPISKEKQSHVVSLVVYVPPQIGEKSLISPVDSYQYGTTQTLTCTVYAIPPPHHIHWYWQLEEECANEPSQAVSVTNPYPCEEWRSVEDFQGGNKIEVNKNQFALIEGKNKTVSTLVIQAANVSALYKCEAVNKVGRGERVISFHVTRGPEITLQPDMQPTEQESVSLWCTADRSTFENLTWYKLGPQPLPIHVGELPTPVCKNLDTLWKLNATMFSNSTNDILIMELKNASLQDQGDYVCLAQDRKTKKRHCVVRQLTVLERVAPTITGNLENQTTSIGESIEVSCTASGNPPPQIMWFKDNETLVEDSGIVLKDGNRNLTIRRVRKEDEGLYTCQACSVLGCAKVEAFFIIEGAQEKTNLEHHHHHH

EC50 (PDL1-ECD-His蛋白)	EC50 (PD-L1 on N87-PDL1 cells)	IC50 (luminescence, PD-1/PD-L1 Blockade Bioassay) [1]	binding result (KDR-ECD-His蛋白 [2])	EC50 (KDR-ECD-His蛋白 [3])	EC50 (PDL1-ECD-hFc蛋白 [4])	IC50 (luminescence, VEGF Bioassay) [5]	binding result (PDL1-ECD-hFc蛋白 [6])	Binder
130 pM	130 pM	230 pM	no binding (tested: 12nM)	–	–	–	–	B1
130 pM	150 pM	270 pM	–	230 pM	130 pM	13500 pM	–	B2
140 pM	150 pM	220 pM	–	230 pM	140 pM	6090 pM	–	B3
150 pM	210 pM	300 pM	–	410 pM	200 pM	4350 pM	–	B4
–	–	–	–	260 pM	–	3100 pM	no binding (tested: 12nM)	B5
